{"source": "paper PMC11342776", "about": "“Protein kinase Hsl1 phosphorylates Pah1 to inhibit phosphatidate phosphatase activity and regulate lipid synthesis in Saccharomyces cerevisiae” (The Journal of Biological Chemistry, 2024)", "proteins": {"B1": {"name": "Hsl1 (Saccharomyces cerevisiae S288C) (protein)", "chain": "MTGHVSKTSHVPKGRPSSLAKKAAKRAMAKVNSNPKRASGHLERVVQSVNDATKRLSQPDSTVSVATKSSKRKSRDTVGPWKLGKTLGKGSSGRVRLAKNMETGQLAAIKIVPKKKAFVHCSNNGTVPNSYSSSMVTSNVSSPSIASREHSNHSQTNPYGIEREIVIMKLISHTNVMALFEVWENKSELYLVLEYVDGGELFDYLVSKGKLPEREAIHYFKQIVEGVSYCHSFNICHRDLKPENLLLDKKNRRIKIADFGMAALELPNKLLKTSCGSPHYASPEIVMGRPYHGGPSDVWSCGIVLFALLTGHLPFNDDNIKKLLLKVQSGKYQMPSNLSSEARDLISKILVIDPEKRITTQEILKHPLIKKYDDLPVNKVLRKMRKDNMARGKSNSDLHLLNNVSPSIVTLHSKGEIDESILRSLQILWHGVSRELITAKLLQKPMSEEKLFYSLLLQYKQRHSISLSSSSENKKSATESSVNEPRIEYASKTANNTGLRSENNDVKTLHSLEIHSEDTSTVNQNNAITGVNTEINAPVLAQKSQFSINTLSQPESDKAEAEAVTLPPAIPIFNASSSRIFRNSYTSISSRSRRSLRLSNSRLSLSASTSRETVHDNEMPLPQLPKSPSRYSLSRRAIHASPSTKSIHKSLSRKNIAATVAARRTLQNSASKRSLYSLQSISKRSLNLNDLLVFDDPLPSKKPASENVNKSEPHSLESDSDFEILCDQILFGNALDRILEEEEDNEKERDTQRQRQNDTKSSADTFTISGVSTNKENEGPEYPTKIEKNQFNMSYKPSENMSGLSSFPIFEKENTLSSSYLEEQKPKRAALSDITNSFNKMNKQEGMRIEKKIQREQLQKKNDRPSPLKPIQHQELRVNSLPNDQGKPSLSLDPRRNISQPVNSKVESLLQGLKFKKEPASHWTHERGSLFMSEHVEDEKPVKASDVSIESSYVPLTTVATSSRDPSVLAESSTIQKPMLSLPSSFLNTSMTFKNLSQILADDGDDKHLSVPQNQSRSVAMSHPLRKQSAKISLTPRSNLNANLSVKRNQGSPGSYLSNDLDGISDMTFAMEIPTNTFTAQAIQLMNNDTDNNKINTSPKASSFTKEKVIKSAAYISKEKEPDNSDTNYIPDYTIPNTYDEKAINIFEDAPSDEGSLNTSSSESDSRASVHRKAVSIDTMATTNVLTPATNVRVSLYWNNNSSGIPRETTEEILSKLRLSPENPSNTHMQKRFSSTRGSRDSNALGISQSLQSMFKDLEEDQDGHTSQADILESSMSYSKRRPSEESVNPKQRVTMLFDEEEEESKKVGGGKIKEEHTKLDNKISEESSQLVLPVVEKKENANNTENNYSKIPKPSTIKVTKDTAMESNTQTHTKKPILKSVQNVEVEEAPSSDKKNWFVKLFQNFSSHNNATKASKNHVTNISFDDAHMLTLNEFNKNSIDYQLKNLDHKFGRKVVEYDCKFVKGNFKFKIKITSTPNASTVITVKKRSKHSNTSSNKAFEKFNDDVERVIRNAGRS", "notes": "full-length with C-terminal TAP tag kept (chromosomal HSL1-TAP); IgG-Sepharose purified from S. cerevisiae, endogenously phosphorylated; ~190 kDa on gel"}}, "substrate": "Nc1ncnc2c1ncn2[C@@H]1O[C@H](COP(=O)(O)OP(=O)(O)OP(=O)(O)O)[C@@H](O)[C@H]1O", "assay": "purified protein", "assay_type": "biochemical, Saccharomyces cerevisiae", "settings": "500 nM Pah1 as protein substrate, 10 mM MgCl2, 2 mM DTT, pH 7.5, 30 °C, labelled compound", "data": [{"protein": "B1", "values": [{"measurement": "Km", "value": 31, "unit": "µM"}]}]}
